± gives the standard deviation of the averaged measurements.
B1: library; a variant is named by its letters at N, in order (parent)
chain: GCUGUCACCGGUGCUUGGUACGUUAUAUUCAGCCGGUCUGAUGAGUCUNNNNNNAGACGAAACAGC

Assays:
(6R,S)-folinic acid [1] = variants of: B1; assay: normalized RNA/DNA level without ligand (relative to sTRSVctl = 100) (log10 (% of sTRSVctl)); HEK293T overexpressing SLC46A1; higher = less ribozyme self-cleavage, higher mRNA level; details: without (6R,S)-folinic acid; ligand present: no
Summary of the method: (§1)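 Total RNA, extracted with EDTA 72 h after HEK293T cells were transfected with 4 µg per 6-well well of reporter-linked ribozyme switch library plasmids, was reverse-transcribed, amplified, barcoded and sequenced. Ligand, if used, was added 1 h before transfection. RNA level was derived from RNA reads divided by DNA reads and normalized to a spiked-in non-cleaving sequence or to the top sequences. This was multiplied by 100 and log10-transformed, with the top set of 25 sequences and a ≥100 DNA read minimum.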

(6R,S)-folinic acid [2] = variants of: B1; assay: normalized RNA/DNA level with ligand (relative to sTRSVctl = 100) (log10 (% of sTRSVctl)); HEK293T overexpressing SLC46A1; ligand concentration (+) RNA-Seq: 6 mM; higher = less ribozyme self-cleavage, higher mRNA level; details: with (6R,S)-folinic acid; ligand present: yes
Summary of the method: as §1

Variant | normalized RNA/DNA level without ligand (log10) ((6R,S)-folinic acid [1]) | normalized RNA/DNA level with ligand (log10) ((6R,S)-folinic acid [2])
GCUGUCACCGGUGCUUGGUACGUUAUAUUCAGCCGGUCUGAUGAGUCUGUUCAUAGACGAAACAGC [GUUCAU] | 2.019 ± 0.0083 | 2.02 ± 0.034
GCUGUCACCGGUGCUUGGUACGUUAUAUUCAGCCGGUCUGAUGAGUCUGUUCAGAGACGAAACAGC [GUUCAG] | 1.963 ± 0.0042 | 2 ± 0.043
GCUGUCACCGGUGCUUGGUACGUUAUAUUCAGCCGGUCUGAUGAGUCUCUUAUCAGACGAAACAGC [CUUAUC] | 2.089 ± 0.009 | 2.08 ± 0.033
GCUGUCACCGGUGCUUGGUACGUUAUAUUCAGCCGGUCUGAUGAGUCUCUUAUGAGACGAAACAGC [CUUAUG] | 2.013 ± 0.005 | 2.0211 ± 0.00067
GCUGUCACCGGUGCUUGGUACGUUAUAUUCAGCCGGUCUGAUGAGUCUCUUCACAGACGAAACAGC [CUUCAC] | 2.027 ± 0.0051 | 1.988 ± 0.011
GCUGUCACCGGUGCUUGGUACGUUAUAUUCAGCCGGUCUGAUGAGUCUCUUCAUAGACGAAACAGC [CUUCAU] | 2 ± 0.0049 | 1.99 ± 0.037
GCUGUCACCGGUGCUUGGUACGUUAUAUUCAGCCGGUCUGAUGAGUCUCUUCAGAGACGAAACAGC [CUUCAG] | 2.027 ± 0.015 | 2.099 ± 0.011
GCUGUCACCGGUGCUUGGUACGUUAUAUUCAGCCGGUCUGAUGAGUCUCUUCAAAGACGAAACAGC [CUUCAA] | 2.023 ± 0.0088 | 2.05 ± 0.042
GCUGUCACCGGUGCUUGGUACGUUAUAUUCAGCCGGUCUGAUGAGUCUAUUAUGAGACGAAACAGC [AUUAUG] | 1.94 ± 0.021 | 2.02 ± 0.033
GCUGUCACCGGUGCUUGGUACGUUAUAUUCAGCCGGUCUGAUGAGUCUAUUAUCAGACGAAACAGC [AUUAUC] | 2.062 ± 0.01 | 2.03 ± 0.022
GCUGUCACCGGUGCUUGGUACGUUAUAUUCAGCCGGUCUGAUGAGUCUUUUCACAGACGAAACAGC [UUUCAC] | 2.0237 ± 0.0014 | 2.0028 ± 0.00095
GCUGUCACCGGUGCUUGGUACGUUAUAUUCAGCCGGUCUGAUGAGUCUUUUCAAAGACGAAACAGC [UUUCAA] | 1.997 ± 0.0084 | 2.01 ± 0.029
GCUGUCACCGGUGCUUGGUACGUUAUAUUCAGCCGGUCUGAUGAGUCUUUUCAUAGACGAAACAGC [UUUCAU] | 1.993 ± 0.0093 | 2.02 ± 0.022
GCUGUCACCGGUGCUUGGUACGUUAUAUUCAGCCGGUCUGAUGAGUCUUUUAUCAGACGAAACAGC [UUUAUC] | 2.103 ± 0.0028 | 2.065 ± 0.016
GCUGUCACCGGUGCUUGGUACGUUAUAUUCAGCCGGUCUGAUGAGUCUUUUAUAAGACGAAACAGC [UUUAUA] | 1.993 ± 0.015 | 2 ± 0.03
GCUGUCACCGGUGCUUGGUACGUUAUAUUCAGCCGGUCUGAUGAGUCUUUUAUUAGACGAAACAGC [UUUAUU] | 1.988 ± 0.0096 | 2.03 ± 0.033
GCUGUCACCGGUGCUUGGUACGUUAUAUUCAGCCGGUCUGAUGAGUCUAUUCACAGACGAAACAGC [AUUCAC] | 2.04 ± 0.0098 | 1.994 ± 0.019
GCUGUCACCGGUGCUUGGUACGUUAUAUUCAGCCGGUCUGAUGAGUCUAUUCAUAGACGAAACAGC [AUUCAU] | 2 ± 0.026 | 2.0232 ± 0.0017
GCUGUCACCGGUGCUUGGUACGUUAUAUUCAGCCGGUCUGAUGAGUCUAUUCAAAGACGAAACAGC [AUUCAA] | 1.9988 ± 0.0016 | 2.01 ± 0.029
GCUGUCACCGGUGCUUGGUACGUUAUAUUCAGCCGGUCUGAUGAGUCUGUUAUUAGACGAAACAGC [GUUAUU] | 2.016 ± 0.0067 | 2.007 ± 0.02
GCUGUCACCGGUGCUUGGUACGUUAUAUUCAGCCGGUCUGAUGAGUCUGUUAUCAGACGAAACAGC [GUUAUC] | 2.027 ± 0.012 | 2.044 ± 0.0079

— the supplement of paper PMC6757056
